Reference: patent publication US20220010021A1 (Sanofi, published 2022)
Positions count from the first letter of the chain named.

B1: 16H7 variant, light chain G24I (antibody, human IgG4 S228P, lambda, V domains shown)
VH: not shown
VL: SYVLTQPPSVSVAPGQTARITCGINNIGSESVHWYQQKPGQAPVLVVYDDSDRPSGIPERFSGSNSGNTATLTISRVEAGDEADYYCQVWDGNSDHVVFGGGTKLTVLG
notes: IgG4 backbone
B2: 16H7 variant, light chain G24W (antibody, human IgG4 S228P, lambda, V domains shown)
VH: not shown
VL: B1 VL with I24W
notes: IgG4 backbone
B3: 16H7 variant, light chain N26E (antibody, human IgG4 S228P, lambda, V domains shown)
VH: not shown
VL: B1 VL with I24G, N26E
notes: IgG4 backbone
B4: 16H7 variant, light chain N25I (antibody, human IgG4 S228P, lambda, V domains shown)
VH: not shown
VL: B1 VL with I24G, N25I
notes: IgG4 backbone
B5: 16H7 variant, light chain N25L (antibody, human IgG4 S228P, lambda, V domains shown)
VH: not shown
VL: B1 VL with I24G, N25L
notes: IgG4 backbone
B6: 16H7 variant, light chain G24V (antibody, human IgG4 S228P, lambda, V domains shown)
VH: not shown
VL: B1 VL with I24V
notes: IgG4 backbone
B7: 16H7 variant, light chain N25E (antibody, human IgG4 S228P, lambda, V domains shown)
VH: not shown
VL: B1 VL with I24G, N25E
notes: IgG4 backbone
B8: 16H7 variant, light chain G24M (antibody, human IgG4 S228P, lambda, V domains shown)
VH: not shown
VL: B1 VL with I24M
notes: IgG4 backbone
B9: 16H7 variant, light chain N25K (antibody, human IgG4 S228P, lambda, V domains shown)
VH: not shown
VL: B1 VL with I24G, N25K
notes: IgG4 backbone
B10: 16H7 variant, light chain N26F (antibody, human IgG4 S228P, lambda, V domains shown)
VH: not shown
VL: B1 VL with I24G, N26F
notes: IgG4 backbone
B11: 16H7 variant, light chain I27E (antibody, human IgG4 S228P, lambda, V domains shown)
VH: not shown
VL: B1 VL with I24G, I27E
notes: IgG4 backbone
B12: 16H7 variant, light chain N25G (antibody, human IgG4 S228P, lambda, V domains shown)
VH: not shown
VL: B1 VL with I24G, N25G
notes: IgG4 backbone
B13: 16H7 variant, light chain I27K (antibody, IgG4, V domains shown)
VH: not shown
VL: B1 VL with I24G, I27K
notes: IgG4 backbone; copies: 2 + 2
B14: 16H7 variant, light chain I27L (antibody, IgG4, V domains shown)
VH: not shown
VL: B1 VL with I24G, I27L
notes: IgG4 backbone; copies: 2 + 2
B15: 16H7 variant, light chain N25Q (antibody, human IgG4 S228P, lambda, V domains shown)
VH: not shown
VL: B1 VL with I24G, N25Q
notes: IgG4 backbone
B16: 16H7 variant, light chain G24L (antibody, human IgG4 S228P, lambda, V domains shown)
VH: not shown
VL: B1 VL with I24L
notes: IgG4 backbone
B17: 16H7 variant, light chain G24S (antibody, human IgG4 S228P, lambda, V domains shown)
VH: not shown
VL: B1 VL with I24S
notes: IgG4 backbone
B18: 16H7 variant, light chain N25W (antibody, human IgG4 S228P, lambda, V domains shown)
VH: not shown
VL: B1 VL with I24G, N25W
notes: IgG4 backbone
B19: 16H7 variant, light chain N26C (antibody, IgG4, V domains shown)
VH: not shown
VL: B1 VL with I24G, N26C
notes: IgG4 backbone; copies: 2 + 2
B20: 16H7 variant, light chain G24K (antibody, human IgG4 S228P, lambda, V domains shown)
VH: not shown
VL: B1 VL with I24K
notes: IgG4 backbone
B21: 16H7 variant, light chain G24N (antibody, human IgG4 S228P, lambda, V domains shown)
VH: not shown
VL: B1 VL with I24N
notes: IgG4 backbone
B22: 16H7 variant, light chain G24T (antibody, human IgG4 S228P, lambda, V domains shown)
VH: not shown
VL: B1 VL with I24T
notes: IgG4 backbone
B23: 16H7 variant, light chain N25R (antibody, human IgG4 S228P, lambda, V domains shown)
VH: not shown
VL: B1 VL with I24G, N25R
notes: IgG4 backbone
B24: 16H7 variant, light chain N25S (antibody, human IgG4 S228P, lambda, V domains shown)
VH: not shown
VL: B1 VL with I24G, N25S
notes: IgG4 backbone
B25: 16H7 variant, light chain I27S (antibody, human IgG4 S228P, lambda, V domains shown)
VH: not shown
VL: B1 VL with I24G, I27S
notes: IgG4 backbone
B26: 16H7 variant, light chain N25Y (antibody, human IgG4 S228P, lambda, V domains shown)
VH: not shown
VL: B1 VL with I24G, N25Y
notes: IgG4 backbone
B27: 16H7 variant, light chain N25A (antibody, human IgG4 S228P, lambda, V domains shown)
VH: not shown
VL: B1 VL with I24G, N25A
notes: IgG4 backbone
B28: 16H7 variant, light chain N26A (antibody, human IgG4 S228P, lambda, V domains shown)
VH: not shown
VL: B1 VL with I24G, N26A
notes: IgG4 backbone
B29: 16H7 variant, light chain N26D (antibody, IgG4, V domains shown)
VH: not shown
VL: B1 VL with I24G, N26D
notes: IgG4 backbone; copies: 2 + 2
B30: 16H7 variant, light chain N25T (antibody, human IgG4 S228P, lambda, V domains shown)
VH: not shown
VL: B1 VL with I24G, N25T
notes: IgG4 backbone
B31: 16H7 variant, light chain I27G (antibody, IgG4, V domains shown)
VH: not shown
VL: B1 VL with I24G, I27G
notes: IgG4 backbone; copies: 2 + 2
B32: 16H7 variant, light chain I27D (antibody, human IgG4 S228P, lambda, V domains shown)
VH: not shown
VL: B1 VL with I24G, I27D
notes: IgG4 backbone
B33: 16H7 variant, light chain N25C (antibody, human IgG4 S228P, lambda, V domains shown)
VH: not shown
VL: B1 VL with I24G, N25C
notes: IgG4 backbone
B34: 16H7 variant, light chain N25V (antibody, human IgG4 S228P, lambda, V domains shown)
VH: not shown
VL: B1 VL with I24G, N25V
notes: IgG4 backbone
B35: 16H7 variant, light chain G24R (antibody, human IgG4 S228P, lambda, V domains shown)
VH: not shown
VL: B1 VL with I24R
notes: IgG4 backbone
B36: 16H7 variant, light chain N25P (antibody, human IgG4 S228P, lambda, V domains shown)
VH: not shown
VL: B1 VL with I24G, N25P
notes: IgG4 backbone
B37: 16H7 variant, light chain N25M (antibody, human IgG4 S228P, lambda, V domains shown)
VH: not shown
VL: B1 VL with I24G, N25M
notes: IgG4 backbone
B38: 16H7 variant, light chain N25H (antibody, human IgG4 S228P, lambda, V domains shown)
VH: not shown
VL: B1 VL with I24G, N25H
notes: IgG4 backbone
B39: 16H7 variant, light chain G24Y (antibody, human IgG4 S228P, lambda, V domains shown)
VH: not shown
VL: B1 VL with I24Y
notes: IgG4 backbone

Columns and labels:
[1] = target: human FGFR1c/KLB cell surface receptor complex on iLite FGF21 reporter cells (human, UniProt P11362 22-822; Q86Z14 1-1044); experiment: cell-based or functional assay
human beta-Klotho (KLB) = target: T1, human beta-Klotho (KLB) (human, UniProt Q86Z14 53-997); experiment: BLI off-rate screen (Octet), Ab captured via Fc;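 further: antibody supernatants applied at 25 µg/mL, dissociation monitored over 1800 s in D-PBS with 0.1% BSA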
T1 construct: also called human KLB
T1 sequence (looked up): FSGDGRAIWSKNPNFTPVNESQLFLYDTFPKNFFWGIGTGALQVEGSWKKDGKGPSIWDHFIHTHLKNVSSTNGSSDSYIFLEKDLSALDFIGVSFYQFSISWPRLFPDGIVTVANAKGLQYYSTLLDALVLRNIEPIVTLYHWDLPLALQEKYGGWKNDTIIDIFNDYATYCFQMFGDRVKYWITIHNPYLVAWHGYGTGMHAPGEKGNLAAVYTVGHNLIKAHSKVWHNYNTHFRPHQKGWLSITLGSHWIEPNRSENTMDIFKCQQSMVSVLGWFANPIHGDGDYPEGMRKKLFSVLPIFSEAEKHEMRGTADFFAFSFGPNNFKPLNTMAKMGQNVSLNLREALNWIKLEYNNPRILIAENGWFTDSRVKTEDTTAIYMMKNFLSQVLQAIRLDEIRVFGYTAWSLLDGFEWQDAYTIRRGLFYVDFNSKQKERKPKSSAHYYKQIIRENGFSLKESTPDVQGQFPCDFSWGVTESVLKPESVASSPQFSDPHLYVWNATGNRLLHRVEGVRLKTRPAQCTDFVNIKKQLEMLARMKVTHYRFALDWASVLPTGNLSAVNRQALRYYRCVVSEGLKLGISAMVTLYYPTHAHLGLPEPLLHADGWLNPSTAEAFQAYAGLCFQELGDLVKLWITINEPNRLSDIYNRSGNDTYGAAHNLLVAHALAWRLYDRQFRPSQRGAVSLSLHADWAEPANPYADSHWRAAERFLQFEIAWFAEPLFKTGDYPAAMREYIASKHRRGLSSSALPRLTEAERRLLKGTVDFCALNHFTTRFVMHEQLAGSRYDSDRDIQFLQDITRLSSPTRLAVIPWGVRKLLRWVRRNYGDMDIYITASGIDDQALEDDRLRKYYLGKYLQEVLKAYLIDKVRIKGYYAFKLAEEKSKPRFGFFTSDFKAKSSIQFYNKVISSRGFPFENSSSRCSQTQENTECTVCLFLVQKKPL

Chain of human FGFR1c/KLB cell surface receptor complex on iLite FGF21 reporter cells (P11362 22-822, chain 1 of 2): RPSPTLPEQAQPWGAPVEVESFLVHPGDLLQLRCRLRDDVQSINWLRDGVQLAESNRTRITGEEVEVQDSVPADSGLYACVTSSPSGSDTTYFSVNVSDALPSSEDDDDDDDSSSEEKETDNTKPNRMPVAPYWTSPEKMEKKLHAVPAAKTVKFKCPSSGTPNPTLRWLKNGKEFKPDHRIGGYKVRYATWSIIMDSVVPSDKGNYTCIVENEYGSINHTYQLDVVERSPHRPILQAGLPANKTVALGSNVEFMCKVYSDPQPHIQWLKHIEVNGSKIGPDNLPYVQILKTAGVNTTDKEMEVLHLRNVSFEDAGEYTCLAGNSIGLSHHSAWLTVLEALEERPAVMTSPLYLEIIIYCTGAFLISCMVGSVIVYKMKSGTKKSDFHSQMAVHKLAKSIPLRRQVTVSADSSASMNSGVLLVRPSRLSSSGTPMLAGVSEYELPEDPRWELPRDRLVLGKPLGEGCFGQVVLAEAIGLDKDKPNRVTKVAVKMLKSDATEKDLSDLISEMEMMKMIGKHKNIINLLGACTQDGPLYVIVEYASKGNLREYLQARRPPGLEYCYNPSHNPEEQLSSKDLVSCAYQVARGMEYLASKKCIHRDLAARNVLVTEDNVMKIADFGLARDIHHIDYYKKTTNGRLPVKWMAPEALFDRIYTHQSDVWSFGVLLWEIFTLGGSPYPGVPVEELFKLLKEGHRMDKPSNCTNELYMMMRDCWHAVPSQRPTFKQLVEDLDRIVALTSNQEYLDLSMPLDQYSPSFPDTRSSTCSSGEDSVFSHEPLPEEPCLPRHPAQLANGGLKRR
Chain of human FGFR1c/KLB cell surface receptor complex on iLite FGF21 reporter cells (Q86Z14 whole entry, chain 2 of 2): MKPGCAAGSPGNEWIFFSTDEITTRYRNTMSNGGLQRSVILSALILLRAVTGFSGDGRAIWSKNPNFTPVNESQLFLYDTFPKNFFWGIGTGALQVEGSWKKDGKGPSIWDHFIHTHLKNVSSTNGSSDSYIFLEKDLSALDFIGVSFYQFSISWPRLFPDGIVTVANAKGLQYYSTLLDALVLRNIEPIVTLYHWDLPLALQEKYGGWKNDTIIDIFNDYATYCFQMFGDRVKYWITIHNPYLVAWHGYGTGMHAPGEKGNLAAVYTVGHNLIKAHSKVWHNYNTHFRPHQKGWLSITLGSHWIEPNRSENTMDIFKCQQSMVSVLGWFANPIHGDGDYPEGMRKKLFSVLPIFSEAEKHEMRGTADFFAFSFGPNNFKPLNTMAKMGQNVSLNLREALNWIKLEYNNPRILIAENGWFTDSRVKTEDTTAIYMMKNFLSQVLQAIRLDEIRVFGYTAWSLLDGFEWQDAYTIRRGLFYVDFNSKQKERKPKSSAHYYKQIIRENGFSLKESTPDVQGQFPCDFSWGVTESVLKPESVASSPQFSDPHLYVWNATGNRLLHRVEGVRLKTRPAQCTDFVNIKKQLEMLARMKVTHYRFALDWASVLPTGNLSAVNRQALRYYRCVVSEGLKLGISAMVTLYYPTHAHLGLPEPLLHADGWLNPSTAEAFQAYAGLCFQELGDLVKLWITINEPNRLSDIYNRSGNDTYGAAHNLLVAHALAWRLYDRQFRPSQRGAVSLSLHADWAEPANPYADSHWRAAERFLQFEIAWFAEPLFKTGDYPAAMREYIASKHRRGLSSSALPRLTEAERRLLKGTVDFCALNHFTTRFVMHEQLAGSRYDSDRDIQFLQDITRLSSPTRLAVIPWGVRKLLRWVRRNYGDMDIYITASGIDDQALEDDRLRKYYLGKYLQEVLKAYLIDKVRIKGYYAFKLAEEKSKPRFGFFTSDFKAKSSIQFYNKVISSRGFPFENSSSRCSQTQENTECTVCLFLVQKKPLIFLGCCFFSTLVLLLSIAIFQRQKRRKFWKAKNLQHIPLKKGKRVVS

Binder | Mean E max (%) [1] | Mean EC50 [1] | koff (human beta-Klotho (KLB))
B1 | 109% | 0.143 nM | 2.7e-05 s⁻¹
B2 | 110% | 0.145 nM | 3.7e-05 s⁻¹
B3 | 106% | 0.106 nM | 7.2e-05 s⁻¹
B4 | 104% | 0.122 nM | 2.2e-05 s⁻¹
B5 | 109% | 0.134 nM | 1.2e-05 s⁻¹
B6 | 102% | 0.125 nM | 8.5e-05 s⁻¹
B7 | 106% | 0.107 nM | 3e-05 s⁻¹
B8 | 109% | 0.115 nM | 4.8e-05 s⁻¹
B9 | 110% | 0.182 nM | 3.3e-05 s⁻¹
B10 | 95% | 0.158 nM | 5.4e-05 s⁻¹
B11 | 98% | 0.121 nM | 4.6e-05 s⁻¹
B12 | 100% | 0.118 nM | 3.2e-05 s⁻¹
B13 | 99% | 0.127 nM | 5.3e-05 s⁻¹
B14 | 110% | 0.124 nM | 6.2e-05 s⁻¹
B15 | 102% | 0.096 nM | 1e-07 s⁻¹
B16 | 108% | 0.161 nM | 3.4e-05 s⁻¹
B17 | 121% | 0.135 nM | 8.3e-06 s⁻¹
B18 | 99% | 0.099 nM | 1e-07 s⁻¹
B19 | 103% | 0.146 nM | 1e-07 s⁻¹
B20 | 102% | 0.143 nM | 3.9e-05 s⁻¹

Binder | Mean E max (%) [1] | Mean EC50 [1] | koff (human beta-Klotho (KLB))
B21 | 103% | 0.114 nM | 1.7e-05 s⁻¹
B22 | 106% | 0.139 nM | 6.9e-05 s⁻¹
B23 | 104% | 0.178 nM | 4.1e-05 s⁻¹
B24 | 98% | 0.131 nM | 4.4e-05 s⁻¹
B25 | 106% | 0.141 nM | 4.9e-05 s⁻¹
B26 | 104% | 0.099 nM | 3.1e-05 s⁻¹
B27 | 96% | 0.081 nM | 1.6e-05 s⁻¹
B28 | 98% | 0.106 nM | 4.6e-06 s⁻¹
B29 | 101% | 0.123 nM | 5.6e-05 s⁻¹
B30 | 111% | 0.117 nM | 2.3e-05 s⁻¹
B31 | 111% | 0.123 nM | 3e-05 s⁻¹
B32 | 107% | 0.107 nM | 4.6e-05 s⁻¹
B33 | 110% | 0.133 nM | 3.6e-06 s⁻¹
B34 | 106% | 0.121 nM | 3.2e-05 s⁻¹
B35 | 98% | 0.106 nM | 1.5e-06 s⁻¹
B36 | 106% | 0.132 nM | 1.2e-05 s⁻¹
B37 | 102% | 0.131 nM | 3.1e-06 s⁻¹
B38 | 106% | 0.137 nM | 3e-05 s⁻¹
B39 | 107% | 0.137 nM | 4.1e-05 s⁻¹
